From the DeepSol protein solubility set

test: soluble on expression in E. coli; label from the status in PepcDB or PDB records

Soluble on expression in E. coli, not soluble:
MGSDKIHHHHHHMTAPRELTAETRCGSSMDSSPPTATDDINSADIALRVSALSKTYRIYGRSQDRLLQGLWGNRKQLYREFRALDSISFEIRRGETFGIIGPNGSGKSTLLQLIAGTLTPTQGEIYIKGKVSALLELGAGFNGEFTGRENIRMAASIAGLNPGEIGQRHECIAAYADIGDFLDQPVKTYSSGMYVRLAFAVAISVEPEVLIIDEALAVGDMEFQAKCMVTLKQMQERGTTILFVSHDVGAVSALCKRTLYLKHGRALEIGPTPDVVARYIREVQEANNRKINVTVSENNDSRTTSPSDASETGIAPSHRTASLTSAEAASGAASGFLTAASPFRSVEKKHLARFAENANHCRSGTGDVRVIYAEMTDDEGLPVRSAEFGQSVLIRIIVEAARTCTFSVNYKICDKNRTPVIGADFLMQRQALLTLEPSQQAEALYRTSLPLTDGRYSLRISLTHPVNAHQQALFFDIVEIAHVFEVLPNPTAKFWTQVYLPNTLDVRVLE
MGSDKIHHHHHHMTAPSPEAWLYMLLQTARELELPWLDLIVDQAEMGARWQSRVGALYPPRMLLQDTPHAEAADEGPVLVRLDANQPQTRLLKLLRQWQGQPRVLALFSGWDYDQLAERLTLCMQASWDKGLQQGVLRFHDPRLFAAVVDALDEPRRQLLLEPAVQWHWLDRDGHARMLDATALQSLPPLEWVHDTLTLEQPHIDALACWHLAETWRQNHLLVPQLYGLDSEEELVRRLAQAHQAADKAKLWSEAERIPVVERMLRENA
MGSDKIHHHHHHMTASTVRSPIKVQMRQTGYAARQQRAARMGGMLYQLHELTRNLLAPWVHQAQANAKMFSDPDSLWASLPGAERMAASNELFHRLGKEYEKPAWALDDVEVDGHSLPIIEREVLSKPFCRLLRFKRFSDHVELIGTMKQQPAVLVVAPLSGHHATLLRDTVRTLLRNHKVYVTDWVDARMVPLEAGAFRLEDYIAYIQEFIRHIGAERLHVVSVCQPTVPVLAAVSLMASNDEPTPRSLVMMGGPIDARRSPTQVNNLATENGIEWFQNNLIHTVPFPYPGHGRQVYPGFLQHAGFLSMNPNRHVMSHWDFYTDLVKGDLQDAQAHRQFYDEYNAVLDMPSEYYLDTIRVVFQEFLLPQGKWKVDGQLVMPSAIRNTALLSIEGELDDIAGLGQTEAVHDLCTGIDAAHRRHLVVEGAGHYGIFSGRRWREVVYPQVREFIARYDADPVGSRDPATVTPIRKRGKRA
MGSDKIHHHHHHMTEDNNLGLEFKYLIVNDMDRKFGLWVNTVGYQSIPPDSPYPLKEHPSGYYFNAEKGRVLREYQLVYITKGRGLFSSDSTPERQVCKGRLMVLFPGQWHTYYPLRQTGWTEYYIGFEGPAIDTIVGDAFLSQERQILEVGINEELVSLFSRALEVAEADKISAQQYLSGIVLHMIGMILSISKNKVFEMSDVDQKIEQAKILMNENVSGNIDPEELAMRLNISYSWFRRVFKEYTGYAPAKYFQELKLRKAKQMLVGTSQSVKEISFFLGFQSTEYFFSFFKKRTGLTPLEYRSFGREE
MGSDKIHHHHHHMTEITTLSQFLTTAKTQFQVYDLGRRVQHIDMLAFHQIESLSTPYPYPIQGHAQFAIVFWDASQQHFIWFLKLALDEQGLLSPAPRSQFIEMILAALGQDPTQPLSDEQQERLANNPFNFKPSQEKLAVFNALVRKQLGQRASSQYEFAVQYLSGQVAPAQWQHIGMQGIADVCARANEFDHEQQLVSSFDTAAIEVQIALCQCLEHLLISDTLADKILAKLQDAAPEHQAYFLRALASSAKHSQQAFEHLHGQASLDTNALISIAGRNWSVLKQDSSRSLYLEALALQPQAFFNQVFADIVAIPSLRNQLLGELRNPNRSVQLSQAIGGLFKAASK
MGSDKIHHHHHHMTHPQDQHPPQDARTLPTRDHDASEALLERVRQAAATGTALRLVGGGSKGFYGRPVVGETLSLAEHTGIVNYDPVELVVTVRAGTRLADLQAVLAQEGQQLAFEPPHFGENATVGGTVACGLSGPRRPWAGSVRDFVLGTRMITHDGKRLHFGGEVMKNVAGYDLSRLMVGAQGTLGIIDEVSFKVLPRPAASATLRLEMGLGDAMARLAEWGRKPMPITGAAHDGETLHLRLEGGASSVANTQAQLGGELDDTAFWTQLRELELAFFSRRHDDRPLWRLSLPHRAPPLALDGDTLVDWAGAQRWLRSELPAATIRQHAAQAGGHATLVDRDRAHGVDAPFTPLSVVMDKYHRQLKAKLDPKGIFNPGRLYEGL
MGSDKIHHHHHHMTIEMKNNKNNNCNFPTLRFPEFSGEWKKDIIGNVISVKSEKYNPHSNRTEFICVELESISQGTGELLETFNSAEQKSIKNKFSPGTVLFGKLRPYLRKFYLPYFEGVCSSEIWVMRSNKIEPAFLYSFIQTPYFISLANQSSGSKMPRADWGLIETSKIAYPPNSAERVKIGKFLKLIDERIATQNKIIAHLESLIKGLTNQLLIPNSNWQPTTIGQVLTINPGKDYKHLKEGNIPVYGTGGYMLSVNDYLYDGESVCIGRKGTINKPIFLTGKFWTIDTLFYTSNFNSLLPRFGYYLFKTIDWLKYNEASGVPSLSKVSIEKIHISLPSLAIQNSICRLLDSIYDKLALEESVLNNHQTQKAFILQQMFI
MGSDKIHHHHHHMTITEKRKDFILNSWIKISDDCLKEYLSRELELTDKGQVKSTTTNIITAIVNPDYCVSHKILNGSVFFDTCSQTIRLIGSIKGESEVNLKAPRKWTDQLTNLLGVEIEMNFGIKYSKGRMEEAVIFIANKRRVNLPKLYMKSLKYDGEDYISKLLPKYLGVDDTALNRWIMEHMLIGMVNRVFYPGCKFDEIMVLTGEQGVGKTSFIEKLALLPDWYCSLNNIKGKDAVSNLVGKIVVELEEFVALKNAKTADEAKLFISTRTSTVRLSYERFSADVDRTCIMIATTNDMTFLGDFSGERRYLPVQVHKEKVGLPVMYDQEKFPQLKGVSREEYSKIVKKDFEGAVAQAVYLFENKLYSPVLPVELRKDLNQVIQMHKNENRHVQNFFEFMDWKDTKSDTPNRVCSGEFLSQYPQTNEKVFAELMANEMADKWELEPTDKSRKFKIDGRVRVSKKFYVRKNMPDFIEVTDDIEIPF
MGSDKIHHHHHHMTKIESLGSVKRKAVNISPEDLIKTEFLQPGNNFPLVIKPNVKGVDLQNWAKNNREFLKAELLKYGAILFRDFKVKSIEEFEQIIAAICGEAMEYRYRASPRTQVGGRIYTSTDYPAEQSIFPHNEHAYSPTFPLKIFFFCMSPAAQGGETPIGSCRKVFERIHPDIRDRFIQKKVMYMRNFGDGFGLPWQTVFQTTDKTKVEEYCKINGIEVEWKADNRLRTRQVGPVVLKHPQTGEMVWFNHATFFHVSTLESTIRDSLLTNLPEEDLPTNTYYGDGSAIEPSVLAELRAAYQQEMVTFSWEKGHVLMLDNMLSIHARQPFVPPRKILVGMAEAHTPIPLG
MGSDKIHHHHHHMTKLRIAVQGCCHGQLNQIYKEVSRIHAKTPIDLLIILGDFQSIRDGQDFKSIAIPPKYQRLGDFISYYNNEIEAPVPTIFIGGNHESMRHLMLLPHGGYVAKNIFYMGYSNVIWFKGIRIGSLSGIWKEWDFNKQRPDWNDLENNNWKANIRNLYHVRISDIAPLFMIKHRIDIMLSHDWPNGVVYHGDTKHLLKLKPFFEQDIKEGKLGSPVTWQLLRDLRPQWWLSAHLHVRFMASIKHNKRSHEPPNKSTSKTKKNNNEIDLDLSSDEDERSGIMNCQEENEYDSKYGETRFLALDKCLPRRRWLEILEIEPDTSHASWKDENHRMFWDPEFINNLVICQKNKNLLSNKPFNSVNWIELSQSNREEGRDIDWENYAIPAYTLDIQKDEVRQTKAFISKFMT
MGSDKIHHHHHHMTKNARQTALDVLNDIFGNDAYANISLDRNLRDSELSTVDKAFVTALVYGVVSKKDLLEWHITPFLKKEPKPWAKMLLLLTVYQILFMDKVPTSAAVDEAVKIAKRRDGQATANFINAVLRNFMRSEHRNEEPKDWETKYSMPKLLLDKMVRQFGGKRTGEILESLEKPSHVSLRKIDPTVEISGTRASLLTESALIADSGNFAMTEEFQSGRITIQDETSQLVAPQLDLEGTEEVLDACAAPGGKSTHMAQYLTIGHITALDLYDHKLDLINQNAERQHVADKITTQKADATMIFEEFGSDKFDRILVDAPCSGIGLIRRKPDIRYRKESSDFVDLQKIQLEILNSASKSLKKSGIMVYSTCTIFDEENFDVVRQFLESHPNFEQVEISSDKADMIKEGCIFITPEMYHTDGFFIAKFKKIGE
